According to FireProtDB (doi:10.1110/ps.051838206):
Several values for one entry are separate records, joined by “and”; a condition that tells them apart may be missing. Equal entries are not always repeated.

Details: Pseudomonas aeruginosa (strain ATCC 15692 / DSM 22644 / CIP 104116 / JCM 14847 / LMG 12228 / 1C / PRS 101 / PAO1); pH 7; 25 °C; GdnHCl; Fluorescence; Tris-HCl 100 mM; reversible: Yes; whole UniProt chain shown

B1: Azurin wild type, P00282 (protein)
chain: MLRKLAAVSLLSLLSAPLLAAECSVDIQGNDQMQFNTNAITVDKSCKQFTVNLSHPGNLPKNVMGHNWVLSTAADMQGVVTDGMASGLDKDYLKPDDSRVIAHTKLIGSGEKDSVTFDVSKLKEGEQYMFFCTFPGHSALMKGTLTLK
  unfolding free energy: 5.98 kcal/mol and 12.9 kcal/mol
